Data reported in patent publication US9944712B2, “TLR3 binding agents” (INNATE PHARMA, priority 2012, dated 2018).
Positions count from the first letter of the chain named. Values belong to the molecule of their own block, whether it stands above or below them.

Assays:
[1] = system: COPD mouse model; experiment: COPD mouse model (Elastin and LPS); type: in vivo; details: drug combination study, FIG. 5E
Description: All mice were treated at days 0, 7, 14 and 21 with Elastin and LPS (i.n.), to induce COPD. At day 28 mice were sacrificed for analysis.
The cellular infiltrates into airways was measured by analysis of bronchoalveolar lavage (BAL) fluid by differential cell count on day 28. The oxygenation of venous blood was measured by gasometry on day 28. The level inflammatory mediators in BALF, through the analysis for protein levels of TNF-alpha, IL-6, IL-17A and IP-10 was performed by multiplex assay. […] Statistical analysis was performed on all data utilizing a Student's t test: ‘*’ p<0.05; ‘**’ p<0.005; ‘***’ p<0.0005.
Four groups of mice were treated as follows: • 1 group of mice with a vehicle (PBS, i.p., twice per week). • 1 group of mice with the anti-mouse TLR3 28G7 antibody administration (i.p., 500 μg/per mouse, […]; antagonist of PDE-4) (3 mg/kg, oral, five times per week). • 1 group of mice with both roflumilast and 28G7 antibody, each agent according to the schedule used as single agent.
All mice were treated with Elastin and LPS (i.n.), to induce COPD and sacrificed as in study A.
The cellular infiltrates into airways was measured by analysis of bronchoalveolar lavage (BAL) fluid by differential cell count as in Study A.

[2] = molecular target: T1, human TLR3 solely at the cell surface (TLR3/CD32-expressing 293T cells) (Homo sapiens, UniProt O15455); experiment: Titration on HEK293T cells expressing TLR3 ECD-CD32 solely at the cell surface (FACS); type: binding; details: neutral pH
T1 construct: transiently transfected with the wild-type or mutant TLR3 ECD-CD32 construct; expressed in transfected cells; host or cells: HEK293T, transient, pcDNA3.1
Description: (§1) The mature wild-type or mutant TLR3 sequence was fused to the CD32 transmembrane and intracellular domains as described by De Bouteiller et al. (2005) J. Biol. Chem. 280(46): 38133-38145. A first round of PCR was performed to introduce a V5 tag in N-terminal position of the TLR3-CD32 fusion protein and a second round—using the first PCR as a template—to introduce the TLR3 leader peptide in the construct. The PCR product was TA-cloned into the pGEMTeasy vector for sequencing and finally cloned into the pcDNA3.1 vector using the NheI and NotI restriction sites.
(§2) Following two wash cycles, cell MFI was analyzed on a FACS Canto II cytometer. With the aim to study the effect of pH on mAb affinity, staining was performed in staining buffer (0.2% BSA, 2 mM EDTA, 0.02% Sodium Azoture) pH7.4 or in citric acid-acidified staining buffer pH5.6.
Additionally, binding (e.g. affinity) to cell surface TLR3 at neutral pH may differ from that of endosomally-expressed TLR3 at acidic pH. Antibodies were tested for binding to cells expressing human TLR3 solely at the cell surface (TLR3/CD32-expressing 293T cells), at neutral pH conditions since pH could potentially affect TLR3 conformation.

[3] = system: TLR3 mutant polypeptides; experiment: FACS staining of cells expressing TLR3 mutant polypeptides (epitope mapping); type: binding, human; details: for binding to wild type TLR3 and mutants K145E, D116R, E171A, K182E or N196A: FACS; for binding to TLR3 in presence of the mutation K145E or K182E: hybridoma clone screening
Description: Mutagenesis was performed on wild type human TLR3 inserted into a pcDNA3.1 vector. After sequencing, the vectors containing the mutated sequences were prepared as Maxiprep using the Promega PureYield™ Plasmid Maxiprep System. Vectors were then used for HEK-293T cell transfection using Invitrogen's Lipofectamine 2000 according to the manufacturer instructions.
All the Mx-R primers were used with the following 5′ primer […] (SEQ ID NO: 121). All the Mx-F primers were used with the following 3′ primer […] (SEQ ID NO: 122). The sequences amplified were run on agarose gel then purified using the Qiagen Gel Extraction kit. The two PCR product generated for each mutant were then ligated into a pcDNA3.1 vector, digested with the restriction enzyme NheI and NotI, with the InFusion system (Clontech) according to the manufacturer's instructions.
After sequencing, the vectors containing the mutated sequences were prepared as Maxiprep using the Promega PureYield™ Plasmid Maxiprep System. Vectors were then used for HEK-293T cell transfection using Invitrogen's Lipofectamine 2000 according to the manufacturer instructions.
as §1, §2
Secondary screening was performed as in immunization #1, above. Potentially interesting hybridomas were cloned by limiting dilution techniques in 96-wells plates, and clones were tested in the same series of secondary screens as for hybridomas. With the aim to compare hybridomas to our reference anti-TLR3 mAbs, the hybridomas were amplified and their supernatants were purified. Purified mAbs were tested in a gene-reporter assay.
Antibodies were then tested for binding to further set of mutants in the N-terminal portion of TLR3 to identify new epitopes. Antibodies were therefore tested for binding to TLR3 mutants. TLR3 mutant polypeptides having mutations in positions Q44H and V45I, R64Q and R65Q, T86S and K89Q, K97I and M100L, K117Q and A120V, Q136H, N140S, V144K and K145N, K147A, K163A, Q167G, Q184L and K187R, Q184L and K187Q, D192E and A195G, Q208P and 1209L, H218Q, A219T, G234N and S236H, L243W and A246S, S112A. Q113S. and S115A, and K137S and K139A (reference to SEQ ID NO: 1) were prepared as described herein in the Materials and Methods and anti-TLR3 antibody staining to cells expressing TLR3 mutant polypeptides was assessed by FACS.

[4] = molecular target: human TLR3 (Homo sapiens, UniProt O15455); experiment: 293T-TLR3-ISRE luciferase reporter assay; type: cell-based; details: dsRNA TLR3 agonists
Excerpt: A reporter gene assay using as promoter ISRE (IFN-stimulated response element) and as reporter gene and protein luciferase was set up. A 293T cell line (ATCC, #CRL-1573) was stably transfected with pISRE-luc plasmid (#219089—Stratagene), further selected by cloning as inducing optimal response to IFN-alpha stimulation and referred to as control 293T-ISRE. This cell line was further stably transfected with pUNO-humanTLR3 plasmid (#puno-htlr3—InVivogen) and referred to as 293T-TLR3-ISRE.
Efficacy assay was performed as described: on day 0, cells are seeded at 4×10^5 cells/mL in complete culture medium in 96-well culture plate (100 μl/well). Cells are first incubated at 37° C. for 20 hours, then 50 μL of medium are discarded and cells are activated with 25 μl/well final of fixed amounts of polyAU together with increasing concentrations of anti-TLR3 antibodies. Cells incubated with fresh medium will be used as background luciferase activity (50 μl/well). Cells are incubated at 37° C. for 6 hours. 100 μL of freshly thawed Steady Glo (Promega) are added to each well, plates were incubated 10 min at RT in the dark and the light emitted in each well is quantified as Count Per Second (CPS) on a gamma-counter (TopCount) apparatus.
Antibodies were tested for inhibition of TLR3 signaling in a luciferase based reporter gene activity (293T-TLR3-ISRE). Engagement of TLR3 receptor using TLR3-agonists such as poly (I:C) has been reported to activate the type-IFN pathway including the promoter ISRE (Wietek et al. J. Biol. Chem., 278 (51), p50923, 2003). Briefly, dsRNA TLR3 agonists were used to induce TLR3 signaling in the reporter assay in the presence of anti-TLR3 antibodies, and TLR3 signaling was assessed. […] Each antibody is compared with reference antibody 31C3.

binding to surface-expressed human TLR3 [2]: strong binding | inhibition of dsRNA-induced TLR3 signaling, potency compared with antibody 31C3 [4]: more potent
B3: 32C4: rat anti-human TLR3 monoclonal antibody; VH SEQ ID NO: 25, VL SEQ ID NO: 26 (antibody, listed as Rattus norvegicus, V domains shown)
VH: EVQLQQYGAELGKPGTSVKLSCKVSGYNIWSTYIYWVNQRPGKGLEWIGRIDPANGNTIYAEKFKTKATLTADTSSNTAYMQLSQLKSDDTAIYFCAMGDHGGYVMDAWGQGASVTVSS
VL: DIQMTQSPGSLSASLGETVSIECLASEDIYSYLAWYQQKPGKSPQLLIYAANRLEDGVPSRFSGSGSGTQYSLKISGMQPEDEGDYFCLQGSEFPYTFGTGTKLELK
binding to wild type TLR3 and mutants K145E, D116R, E171A, K182E or N196A [3]: did not show any loss of binding | binding to TLR3 in presence of the mutation K145E or K182E [3]: bound TLR3

inhibition of dsRNA-induced TLR3 signaling, potency compared with antibody 31C3 [4]: more potent
B4: 37B7: rat anti-human TLR3 monoclonal antibody; VH SEQ ID NO: 36, VL SEQ ID NO: 37 (antibody, listed as Rattus norvegicus, V domains shown)
VH: QVQLQQSGTELVKPGSSVKISCKASGYTFTSNYMHWIRQLPGNGLEWIGWIFPGDGDTNYNQKFNGKATLTADKSSSTAYMQLSSLTSEDYAVYFCARSDGDWYFDFWGPGTMVTVSS
VL: DIQMTQSPGSLSASLGETVTIQCQASEDIYSGLAWYQQKPRKSPQLLISAASRLQDGVPSRFSGSGSGTQYSLKISSMQTEDEGVYFCQQGVKYPNTFGPGTKLELK
binding to wild type TLR3 and mutants K145E, D116R, E171A, K182E or N196A [3]: did not show any loss of binding | binding to TLR3 in presence of the mutation K145E or K182E [3]: bound TLR3

The remaining lines, values behind:

Molecule: O=C(Nc1c(Cl)cncc1Cl)c1ccc(OC(F)F)c(OCC2CC2)c1 [Roflumilast, roflumilast]
infiltration of neutrophils into the airways (BAL differential cell count) ([1]; 28G7 i.p. 500 μg twice per week, roflumilast 3 mg/kg oral five times per week): decreased infiltration of neutrophils | BAL macrophages and lymphocytes [1]: decreases in macrophages

B1: 7G11: rat anti-human TLR3 monoclonal antibody; VH SEQ ID NO: 47, VL SEQ ID NO: 48 (antibody, listed as Rattus norvegicus, V domains shown)
VH: EVQLQQYGAELGKPGTSVKLSCKVSGYNITYTYMHWVNQRPGKGLEWIGRIDPANGNTIYGEKFKNKATLTADTSSNTAYMQLSQLKSDDTAIYFCAMGEFDYFDHWGQGVMVTVSS
VL: DIQMTQSPASLSASLGETVSIECLASEDISNDLAWYQQKSGKSPQVLIYAASRLEDGVPSRFSGSGSGTRYSLKISGMQPEDEADYFCQQSYKYPVTFGSGTKLEIK
binding to surface-expressed human TLR3 [2]: strong binding | binding to wild type TLR3 and mutants K145E, D116R, E171A, K182E or N196A [3]: did not show any loss of binding | binding to TLR3 in presence of the mutation K145E or K182E [3]: bound TLR3 | inhibition of dsRNA-induced TLR3 signaling, potency compared with antibody 31C3 [4]: more potent

B2: 31F6: rat anti-human TLR3 monoclonal antibody; VH SEQ ID NO: 14, VL SEQ ID NO: 15 (antibody, listed as Rattus norvegicus, V domains shown)
VH: EVQLQQSGAELGKPGTSVKLSCKVSGYNIRYTYMHWVNQRPGKGLEWIGRIDPANGDSIYGEDFKTKATLTADTSSNTAYMQLSQLKSDDTAIYFCAMGEFDYFDYWGQGVMVTVSSASTK
VL: B1 VL with A9P, D28G, K39R, V46L, E55Q, S91N, V96L
binding to surface-expressed human TLR3 [2]: strong binding | binding to wild type TLR3 and mutants K145E, D116R, E171A, K182E or N196A [3]: did not show any loss of binding | binding to TLR3 in presence of the mutation K145E or K182E [3]: bound TLR3 | inhibition of dsRNA-induced TLR3 signaling, potency compared with antibody 31C3 [4]: more potent

B5: 11E1: mouse anti-human TLR3 monoclonal antibody; VH SEQ ID NO: 3, VL SEQ ID NO: 4 (antibody, listed as Mus musculus, V domains shown)
VH: QVQLQQPGAELVRPGASVKLSCKASGYTFTNYWMNWVKQRPGQGLEWIGMIDPSDSETHYNQMFKDKATLTVDKSSSTAYMQLSSLTSEDSAVYYCARGGASSDYYYFDYWGQGTTLTVSSASTK
VL: ETTVTQSPASLSMAIGEKVTIRCITSTDIHDDINWYQQKPGEPPKLLISEGNTLRPGVPSRFSSSGYGTDFVFTIENMLSEDVADYYCLQSDNLPRTFGGGTKLEIKRT
binding to surface-expressed human TLR3 [2]: strong binding | binding to wild type TLR3 and mutants K145E, D116R, E171A, K182E or N196A [3]: did not show any loss of binding | binding to TLR3 in presence of the mutation K145E or K182E [3]: bound TLR3 | inhibition of dsRNA-induced TLR3 signaling, potency compared with antibody 31C3 [4]: more potent
